This is an account of results in patent US9969998B2, “Compositions of adenosine deaminase-2 (ADA2), variants thereof and methods of using same” (Halozyme, Inc., priority 2014, dated 2018).

Data set [1] can be described thus: Adenosine deaminase (ADA) enzymatic activity assay kit. The data set is classed as biochemical. To be noted: for % of WT adenosine deaminase activity: Table 23; for % activity vs. WT: relative to rHuADA2 WT (Table 21).
Data set [2] is described as follows: Kinetic assessment of adenosine deaminase activity (ammonia assay, Michaelis-Menten). The data set is classed as biochemical. To be noted: for kcat: kcat=Vmax/0.0085/60; for kinetics properties compared to WT: pH 7.6 and pH 6.5. The procedure, abridged:
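Coupled ammonia assay: rHuADA2 WT or variants (1 μg/mL, 17 nM in 2× mix) with adenosine 20 μM–20 mM, α-ketoglutarate, NADPH and GDH, at pH 7.6 or pH 6.5 (PIPES), room temperature. Michaelis-Menten fit gave Km, Vmax, kcat, kcat/Km.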

Data set [3] in a line: Thermal stability by differential scanning fluorimetry (DSF). To be noted: for Tm, melting temperature by DSF: 0.1-1 mg/mL protein. Format: physicochemical. The procedure, abridged:
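Tm was taken as the midpoint of the unfolding transition. WT and variant rHuADA2, PEGylated or not, at 0.1-1 mg/mL were run in triplicate with ROX thermal shift dye, ramped 25 to 99° C at 0.05° C/s. Fluorescence read at 580 nm excitation and 623 nm emission.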
(In general: DSF heats the sample and reads unfolding from a dye or from intrinsic fluorescence.)

Setting [4] is: PEGylated and non-PEGylated forms (Table 23).
Where [5] appears, read: protein diluted to 5 μg/mL, serially diluted 2 fold (Table 21).

As usually defined, the Km is the substrate concentration at which the rate is half of its maximum. A word on the Vmax: it is the rate approached at saturating substrate. The term kcat denotes the number of substrate molecules converted per active site and unit of time at saturation.

B1: R23E: ADA2 variant SEQ ID NO:30 (protein)
chain: IDETRAHLLLKEKMMRLGGELVLNTKEELANERLMTLKIAEMKEAMRTLIFPPSMHFFQAKHLIERSQVFNILRMMPKGAALHLHDIGIVTMDWLVRNVTYRPHCHICFTPRGIMQFRFAHPTPRPSEKCSKWILLEDYRKRVQNVTEFDDSLLRNFTLVTQHPEVIYTNQNVVWSKFETIFFTISGLIHYAPVFRDYVFRSMQEFYEDNVLYMEIRARLLPVYELSGEHHDEEWSVKTYQEVAQKFVETHPEFIGIKIIYSDHRSKDVAVIAESIRMAMGLRIKFPTVVAGFDLVGHEDTGHSLHDYKEALMIPAKDGVKLPYFFHAGETDWQGTSIDRNILDALMLNTTRIGHGFALSKHPAVRTYSWKKDIPIEVCPISNQVLKLVSDLRNHPVATLMATGHPMVISSDDPAMFGAKGLSYDFYEVFMGIGGMKADLRTLKQLAMNSIKYSTLLESEKNTFMEIWKKRWDKFIADVATK
modifications: human ADA2 R20E, mature numbering
For B1, in data set [1], the “enzymatic activity relative to WT rHuADA2” value was “improved enzymatic activity”, the “% of WT adenosine deaminase activity” value is reported as 106.8% and the “% activity vs. WT” value worked out at 207.1%. Moreover, the “adenosine deaminase activity mU/mL” value in data set [1] (setting [4]) is 129.9 mU/mL. In data set [1] (setting [5]), the “adenosine deaminase activity mU/mL” value is listed as 161.6 mU/mL and the “ΔA/min, adenosine deaminase activity” value was 70.2. Besides, in data set [2] (pH 6.5, [E] = 8.5 nM), the Km amounted to 3.29 mM, the Vmax was determined as 37.16 µM/min and the kcat amounted to 72.86 s⁻¹. Moreover, in data set [2] (pH 7.6, [E] = 8.5 nM), the Km stood at 5.06 mM, the Vmax was determined as 29.08 µM/min and the kcat was 57.02 s⁻¹. Besides, in data set [2], the “kinetics properties compared to WT” value was “improved kinetics properties compared to WT”. In addition, the “Tm, melting temperature by DSF” value in data set [3] was determined as 65.2 °C.

B2: K374E: ADA2 variant SEQ ID NO:21 (protein)
chain: IDETRAHLLLKEKMMRLGGRLVLNTKEELANERLMTLKIAEMKEAMRTLIFPPSMHFFQAKHLIERSQVFNILRMMPKGAALHLHDIGIVTMDWLVRNVTYRPHCHICFTPRGIMQFRFAHPTPRPSEKCSKWILLEDYRKRVQNVTEFDDSLLRNFTLVTQHPEVIYTNQNVVWSKFETIFFTISGLIHYAPVFRDYVFRSMQEFYEDNVLYMEIRARLLPVYELSGEHHDEEWSVKTYQEVAQKFVETHPEFIGIKIIYSDHRSKDVAVIAESIRMAMGLRIKFPTVVAGFDLVGHEDTGHSLHDYKEALMIPAKDGVKLPYFFHAGETDWQGTSIDRNILDALMLNTTRIGHGFALSKHPAVRTYSWEKDIPIEVCPISNQVLKLVSDLRNHPVATLMATGHPMVISSDDPAMFGAKGLSYDFYEVFMGIGGMKADLRTLKQLAMNSIKYSTLLESEKNTFMEIWKKRWDKFIADVATK
modifications: human ADA2 K371E, mature numbering
As for B2, in data set [1], the “enzymatic activity relative to WT rHuADA2” value is recorded as “improved enzymatic activity” and the “% activity vs. WT” value is 402.3%. In data set [1] (setting [5]), the “adenosine deaminase activity mU/mL” value was determined as 313.8 mU/mL and the “ΔA/min, adenosine deaminase activity” value was found to be 136.5. Further, in data set [2] (pH 6.5, [E] = 8.5 nM), the Km was 3.18 mM, the Vmax amounted to 41.93 µM/min and the kcat was determined as 82.22 s⁻¹. For the same molecule, in data set [2] (pH 7.6, [E] = 8.5 nM), the Km turned out to be 4.77 mM, the Vmax is 35.13 µM/min and the kcat is 68.88 s⁻¹. Moreover, the “kinetics properties compared to WT” value in data set [2] is given as “improved kinetics properties compared to WT”. In data set [3], the “Tm higher than WT ADA2” value is 1.4 °C and the “Tm, melting temperature by DSF” value amounted to 69.7 °C.

B3: WT ADA2: wild type recombinant human adenosine deaminase 2 with FLAG tag, mature ADA2 SEQ ID NO:5 (protein, listed as Homo sapiens)
chain: IDETRAHLLLKEKMMRLGGRLVLNTKEELANERLMTLKIAEMKEAMRTLIFPPSMHFFQAKHLIERSQVFNILRMMPKGAALHLHDIGIVTMDWLVRNVTYRPHCHICFTPRGIMQFRFAHPTPRPSEKCSKWILLEDYRKRVQNVTEFDDSLLRNFTLVTQHPEVIYTNQNVVWSKFETIFFTISGLIHYAPVFRDYVFRSMQEFYEDNVLYMEIRARLLPVYELSGEHHDEEWSVKTYQEVAQKFVETHPEFIGIKIIYSDHRSKDVAVIAESIRMAMGLRIKFPTVVAGFDLVGHEDTGHSLHDYKEALMIPAKDGVKLPYFFHAGETDWQGTSIDRNILDALMLNTTRIGHGFALSKHPAVRTYSWKKDIPIEVCPISNQVLKLVSDLRNHPVATLMATGHPMVISSDDPAMFGAKGLSYDFYEVFMGIGGMKADLRTLKQLAMNSIKYSTLLESEKNTFMEIWKKRWDKFIADVATK
modifications: FLAG tag; ADA2 mature protein
Turning to B3, the “adenosine deaminase activity mU/mL” value in data set [1] (setting [4]) stood at 121.6 mU/mL. Further, in data set [1], the “% of WT adenosine deaminase activity” value came out at 100% and the “% activity vs. WT” value was determined as 100%. In addition, in data set [1] (setting [5]), the “adenosine deaminase activity mU/mL” value is given as 78 mU/mL and the “ΔA/min, adenosine deaminase activity” value was found to be 33.9. Further, in data set [1] (purified protein at 5 μg/mL), the “Adenosine deaminase activity mU/ml” value worked out at 78 mU/ml and the “Adenosine deaminase activity ΔA/min” value is 33.9 ΔA/min. The “% of WT activity” value in data set [1] (purified protein at 5 μg/mL, compared to WT-ADA2) was determined as 100%. Moreover, the Km in data set [2] (pH 6.5) was 3.66 mM. For the same molecule, in data set [2] (pH 6.5, [E] = 8.5 nM), the Km came out at 3.66 mM, the Vmax is 31.81 µM/min and the kcat came out at 62.37 s⁻¹. Further, the Km in data set [2] (pH 7.6) is 5.25 mM. In data set [2] (pH 7.6, [E] = 8.5 nM), the Km worked out at 5.25 mM, the maximum rate (Vmax) stood at 26.09 µM/min and the kcat was 51.16 s⁻¹. For the same molecule, the “Tm, melting temperature by DSF” value in data set [3] was determined as 67.1 °C.

B4: PEG-K374D: rHuADA2-K374D (SEQ ID NO:20) PEGylated on surface exposed lysines with linear PEG-20K (conjugate)
chain: IDETRAHLLLKEKMMRLGGRLVLNTKEELANERLMTLKIAEMKEAMRTLIFPPSMHFFQAKHLIERSQVFNILRMMPKGAALHLHDIGIVTMDWLVRNVTYRPHCHICFTPRGIMQFRFAHPTPRPSEKCSKWILLEDYRKRVQNVTEFDDSLLRNFTLVTQHPEVIYTNQNVVWSKFETIFFTISGLIHYAPVFRDYVFRSMQEFYEDNVLYMEIRARLLPVYELSGEHHDEEWSVKTYQEVAQKFVETHPEFIGIKIIYSDHRSKDVAVIAESIRMAMGLRIKFPTVVAGFDLVGHEDTGHSLHDYKEALMIPAKDGVKLPYFFHAGETDWQGTSIDRNILDALMLNTTRIGHGFALSKHPAVRTYSWDKDIPIEVCPISNQVLKLVSDLRNHPVATLMATGHPMVISSDDPAMFGAKGLSYDFYEVFMGIGGMKADLRTLKQLAMNSIKYSTLLESEKNTFMEIWKKRWDKFIADVATK
modifications: linear PEG-20K on surface lysines; human ADA2 K371D, mature numbering
B4: the “adenosine deaminase activity mU/mL” value in data set [1] (setting [4]) turned out to be 142 mU/mL. Also, the “% of WT adenosine deaminase activity” value in data set [1] amounted to 116.8%. Further, the “Tm, melting temperature by DSF” value in data set [3] was 67.81 °C.

B5: K374D: ADA2 variant SEQ ID NO:20 (protein)
chain: IDETRAHLLLKEKMMRLGGRLVLNTKEELANERLMTLKIAEMKEAMRTLIFPPSMHFFQAKHLIERSQVFNILRMMPKGAALHLHDIGIVTMDWLVRNVTYRPHCHICFTPRGIMQFRFAHPTPRPSEKCSKWILLEDYRKRVQNVTEFDDSLLRNFTLVTQHPEVIYTNQNVVWSKFETIFFTISGLIHYAPVFRDYVFRSMQEFYEDNVLYMEIRARLLPVYELSGEHHDEEWSVKTYQEVAQKFVETHPEFIGIKIIYSDHRSKDVAVIAESIRMAMGLRIKFPTVVAGFDLVGHEDTGHSLHDYKEALMIPAKDGVKLPYFFHAGETDWQGTSIDRNILDALMLNTTRIGHGFALSKHPAVRTYSWDKDIPIEVCPISNQVLKLVSDLRNHPVATLMATGHPMVISSDDPAMFGAKGLSYDFYEVFMGIGGMKADLRTLKQLAMNSIKYSTLLESEKNTFMEIWKKRWDKFIADVATK
modifications: human ADA2 K371D, mature numbering
On to B5, for which, in data set [1], the “enzymatic activity relative to WT rHuADA2” value is listed as “improved enzymatic activity”, the “% of WT adenosine deaminase activity” value was determined as 134% and the “% activity vs. WT” value is reported as 345.9%. In data set [1] (setting [4]), the “adenosine deaminase activity mU/mL” value is on record as 162.9 mU/mL. In addition, in data set [1] (setting [5]), the “adenosine deaminase activity mU/mL” value came out at 269.8 mU/mL and the “ΔA/min, adenosine deaminase activity” value came to 117.3. Besides, in data set [2] (pH 6.5, [E] = 8.5 nM), the Km stood at 3.16 mM, the Vmax was 42.98 µM/min and the kcat was 84.27 s⁻¹. Further, in data set [2] (pH 7.6, [E] = 8.5 nM), the Km was 4.88 mM, the Vmax is 28.25 µM/min and the kcat came to 55.39 s⁻¹. Further, the “kinetics properties compared to WT” value in data set [2] is on record as “improved kinetics properties compared to WT”. Further, the “Tm, melting temperature by DSF” value in data set [3] came to 66.8 °C.
